Test results reported in US11046988B2, “Process for the modification of a glycoprotein using a β-(1,4)-N-acetylgalactosaminyl transferase or a mutant thereof” (Synaffix B.V., priority 2014, dated 2021).
Each block holds one molecule with its values, some of them ahead of it.

Tests used:
[1] = Coupled glycosyltransferase assay (R&D Systems Glycosyltransferase Activity Kit, malachite green, 620 nm): transfer of F2-GalNAz to GlcNAc; assay type: biochemical; parameters: Data from the determination of the specific activity: unit not given here; settings: for Data from the determination of the specific activity: GlcNAc 20 mM, UDP-F2-GalNAz 500 μM, 20 min, room temperature, plate read at 620 nm; for specific activity: UDP-F2-GalNAz 500 μM to GlcNAc 20 mM, 5 mM MgCl2 and 5 mM MnCl2, pH 7.5, linear regression; for transferase activity compared with GalT(Y289L): transfer of F2-GalNAz from UDP-F2-GalNAz (18) to GlcNAc, FIG. 7 / FIG. 8
From the text: In brief, the glycosyltransferase kit determines the activity of a particular glycosyltransferase by means of a coupled assay that detects the release of liberated UDP upon transfer of the donor sugar (from the sugar-UDP nucleotide) to an acceptor sugar. In more detail, the UDP that is liberated upon transfer of sugar is hydrolyzed by a particular enzyme (CD39L3/rectonucleoside triphosphate diphosphohydrolase-3, also known as NTPDase-3) thereby generating UMP and one equivalent of phosphate (Pi). The latter phosphate in turn is detected by malachite green, which is also added to the mixture. A green color develops in proportion to the amount of inorganic phosphate released and the absorbance of the color at 620 nm is measured as a direct measure of the activity of the glycosyltransferase. In the present case, transfer of F2-GalNAz from the UDP-substrate to GlcNAc on the protein is accompanied by release of UDP, which is hydrolyzed by CD39L3 and the generated phosphate. Preferably, the derived or wild type β-(1,4)-GalNAcT enzyme used in the process according to the invention has at least 30%, 33%, 50%, 75%, 100%, 150%, 200%, or more preferably at least 300% of the UDP-F2-GalNAz transfer activity as compared to the UDP-F2-GalNAz transfer activity of the β-(1,4)-galactosyltransferase mutant enzyme Bos taurus GalT-Y289L (SEQ ID NO: 1), wherein the transfer activity is assessed using the R&D Systems Glycosyltransferase Activity Kit and applying the conditions as indicated in detail in Example 18 and using equal amounts of the enzyme to be tested and β-(1,4)-galactosyltransferase mutant enzyme Bos taurus GalT-Y289L (SEQ ID NO: 1).
Specific activity of enzymes was determined by a coupled glycosyltransferase procedure as described by Wu et al. in Glycobiology 2010, 21, 723-733, incorporated by reference, and commercially available as a kit from R&D system.
In short, a glycosyltransferase reaction was carried out in 50 μL of reaction buffer (25 mM Tris, 150 mM NaCl, 5 mM MgCl2 and 5 mM MnCl2, pH 7.5) in a 96-well plate at room temperature for 20 min. To determine the kinetic parameters of a glycosyltransferase, multiple reactions with varying amounts of the enzyme were carried out simultaneously (0.01, 0.02, 0.04, 0.06, 0.08, 0.10 and 0.12 μg of enzyme) in the presence of fixed amounts of all other components (GlcNAc: 20 mM, UDP-F2-GalNAz: 500 μM), including the coupling phosphatase 1 (ENTPD3/CD39L3) (2.5 μL of 20 ng/μL solution). A well containing all components except for the enzyme served as a blank control. The reactions were initiated by adding the substrates and phosphatase to the enzyme and terminated by the addition of 30 μL of Malachite reagent A and 100 μL of water to each well. The color was developed by the addition of 30 μL of Malachite reagent B to each well followed by gentle mixing and incubation at room temperature for 20 min. Following color development, the plate was read at 620 nm with a multi-well plate reader. A phosphate standard curve was also performed to determine the conversion factor between the absorbance and the inorganic phosphate contents. Preparation of UDP-F2-GalNAz is described in Example 13.
The specific activity of the GalNAcTs described herein were compared to GalT(Y289L), an enzyme known to transfer UDP-GalNAz as previously disclosed in WO 2007/095506 and WO 2008/029281 (both Invitrogen Corporation).
A graph depicting the conversion (in pmol/min/m) plotted against the amount of enzyme is shown in FIG. 7 (for Table 1) and FIG. 8 (for Table 2). From these plots specific activities were calculated by linear regression. […]

[2] = tested on: GlcNAc2-Man3-GlcNAc-GlcNAc(Fuc)-substituted trastuzumab (formula 27); assay: Glycosyltransfer of GalNAz to galactosidase-trimmed trastuzumab, MS analysis; assay type: biochemical; settings: UDP-GalNAz 0.5 mM, CeGalNAcT 0.1 mg/mL, 10 mM MnCl2, pH 8.0, 16 hours, 22° C.
Procedure: Trastuzumab (10 mg/mL) in 50 mM sodium phosphate pH 6.0 and β(1,4)-galactosidase (3 mU/mg IgG) from Streptococcus pneumoniae (commercially available from Calbiochem) was stirred for 16 hrs at 37° C. prior to analysis by MS. A single major heavy chain product was observed corresponding to trastuzumab with a GlcNAc2-Man3-GlcNAc-GlcNAc(Fuc)-substituted heavy chain (c=d=0, 50592 Da).
A solution of 50 μg (modified) IgG, 1 M Tris-HCl pH 8.0, 1 mM EDTA and 30 mM DTT with a total volume of approximately 70 μL was incubated for 20 minutes at 37° C. to reduce the disulfide bridges allowing to analyze both light and heavy chain. If present, azide-functionalities are reduced to amines under these conditions. Reduced samples were washed trice with milliQ using an Amicon Ultra-0.5, Ultracel-10 Membrane (Millipore) and concentrated to 10 μM (modified) IgG. The reduced IgG was analyzed by electrospray ionization time-of-flight (ESI-TOF) on a JEOL AccuTOF. Deconvoluted spectra were obtained using Magtran software.
Trastuzumab obtained after trimming with galactosidase (as in Formula 27, preparation described in Example 24) was subjected to the glycosyltransfer protocol with UDP-GalNAz and GalNAcT.

activity for transfer of an azido-GalNAc derivative, times higher than GalT(Y289L) ([1]; relative to GalT(Y289L), FIG. 7): 10 times
major heavy chain product ((GalNAz-GlcNAc)2-Man3-GlcNAc-GlcNAc(Fuc)-substituted) [2]: ~90 % of the total heavy chain products
Molecule: CeGalNAcT: truncated Caenorhabditis elegans β-(1,4)-GalNAcT, amino acids 30-383 of SEQ ID NO: 2 (SEQ ID NO: 6)
Data from the determination of the specific activity ([1]; 0.01 μg enzyme): 0.031
Data from the determination of the specific activity ([1]; 0.02 μg enzyme): 0.066
Data from the determination of the specific activity ([1]; 0.04 μg enzyme): 0.14
Data from the determination of the specific activity ([1]; 0.06 μg enzyme): 0.162
Data from the determination of the specific activity ([1]; 0.08 μg enzyme): 0.265
Data from the determination of the specific activity ([1]; 0.1 μg enzyme): 0.301
Data from the determination of the specific activity ([1]; 0.12 μg enzyme): 0.348
specific activity [1]: 426 pmol/min/µg
transferase activity compared with GalT(Y289L) [1]: significantly higher
conversion into (GalNAz-GlcNAc)2-Man3-GlcNAc-GlcNAc(Fuc)-substituted trastuzumab [2]: complete conversion

B1: TnGalNAcT: truncated Trichoplusia ni β-(1,4)-GalNAcT, amino acids 33-421 of SEQ ID NO: 4 (SEQ ID NO: 8) (protein)
chain: SPLRTYLYTPLYNATQPTLRNVERLAANWPKKIPSNYIEDSEEYSIKNISLSNHTTRASVVHPPSSITETASKLDKNMTIQDGAFAMISPTPLLITKLMDSIKSYVTTEDGVKKAEAVVTLPLCDSMPPDLGPITLNKTELELEWVEKKFPEVEWGGRYSPPNCTARHRVAIIVPYRDRQQHLAIFLNHMHPFLMKQQIEYGIFIVEQEGNKDFNRAKLMNVGFVESQKLVAEGWQCFVFHDIDLLPLDTRNLYSCPRQPRHMSASIDKLHFKLPYEDIFGGVSAMTLEQFTRVNGFSNKYWGWGGEDDDMSYRLKKINYHIARYKMSIARYAMLDHKKSTPNPKRYQLLSQTSKTFQKDGLSTLEYELVQVVQYHLYTHILVNIDERS
modifications: TnGalNAcT(33-421)
Data from the determination of the specific activity ([1]; 0.01 μg enzyme): 0
Data from the determination of the specific activity ([1]; 0.02 μg enzyme): 0.007
Data from the determination of the specific activity ([1]; 0.04 μg enzyme): 0.025
Data from the determination of the specific activity ([1]; 0.06 μg enzyme): 0.051
Data from the determination of the specific activity ([1]; 0.08 μg enzyme): 0.073
Data from the determination of the specific activity ([1]; 0.1 μg enzyme): 0.083
Data from the determination of the specific activity ([1]; 0.12 μg enzyme): 0.102
specific activity [1]: 140 pmol/min/µg
transferase activity compared with GalT(Y289L) [1]: significantly higher
